Experiments:
[1] = molecular target: T1, Recombinant Human VEGFR2/KDR Protein, His tag (hVEGFR2-his) (human, UniProt P35968 20-764); experiment: ELISA, hVEGFR2-his coated
T1 construct: Expressed in HEK293, bought from ACRO Biosystems; also called human VEGFR2-his; Human VEGFR2/KDR-His
Method: Same protocol of Example 2 antibody screening by ELISA assay. Briefly, 0.5 μg/ml hVEGFR2-his was coated and serially diluted purified antibodies would bind to coated antigen. Using HRP conjugated goat anti-mouse Fc antibody could detect binding signals of each antibody.
The hybridoma antibodies have similar affinity to human.

[2] = molecular target: T2, human VEGFR2 on HUVEC cells (human, UniProt P35968 20-1356); experiment: flow cytometry on HUVEC cells, percent shifted cells (Shift%), anti-mouse IgG-PE
T2 construct: also called hVEGFR2 on HUVEC
T2 sequence (P35968 20-1356 V297I/Q472H limits assumed): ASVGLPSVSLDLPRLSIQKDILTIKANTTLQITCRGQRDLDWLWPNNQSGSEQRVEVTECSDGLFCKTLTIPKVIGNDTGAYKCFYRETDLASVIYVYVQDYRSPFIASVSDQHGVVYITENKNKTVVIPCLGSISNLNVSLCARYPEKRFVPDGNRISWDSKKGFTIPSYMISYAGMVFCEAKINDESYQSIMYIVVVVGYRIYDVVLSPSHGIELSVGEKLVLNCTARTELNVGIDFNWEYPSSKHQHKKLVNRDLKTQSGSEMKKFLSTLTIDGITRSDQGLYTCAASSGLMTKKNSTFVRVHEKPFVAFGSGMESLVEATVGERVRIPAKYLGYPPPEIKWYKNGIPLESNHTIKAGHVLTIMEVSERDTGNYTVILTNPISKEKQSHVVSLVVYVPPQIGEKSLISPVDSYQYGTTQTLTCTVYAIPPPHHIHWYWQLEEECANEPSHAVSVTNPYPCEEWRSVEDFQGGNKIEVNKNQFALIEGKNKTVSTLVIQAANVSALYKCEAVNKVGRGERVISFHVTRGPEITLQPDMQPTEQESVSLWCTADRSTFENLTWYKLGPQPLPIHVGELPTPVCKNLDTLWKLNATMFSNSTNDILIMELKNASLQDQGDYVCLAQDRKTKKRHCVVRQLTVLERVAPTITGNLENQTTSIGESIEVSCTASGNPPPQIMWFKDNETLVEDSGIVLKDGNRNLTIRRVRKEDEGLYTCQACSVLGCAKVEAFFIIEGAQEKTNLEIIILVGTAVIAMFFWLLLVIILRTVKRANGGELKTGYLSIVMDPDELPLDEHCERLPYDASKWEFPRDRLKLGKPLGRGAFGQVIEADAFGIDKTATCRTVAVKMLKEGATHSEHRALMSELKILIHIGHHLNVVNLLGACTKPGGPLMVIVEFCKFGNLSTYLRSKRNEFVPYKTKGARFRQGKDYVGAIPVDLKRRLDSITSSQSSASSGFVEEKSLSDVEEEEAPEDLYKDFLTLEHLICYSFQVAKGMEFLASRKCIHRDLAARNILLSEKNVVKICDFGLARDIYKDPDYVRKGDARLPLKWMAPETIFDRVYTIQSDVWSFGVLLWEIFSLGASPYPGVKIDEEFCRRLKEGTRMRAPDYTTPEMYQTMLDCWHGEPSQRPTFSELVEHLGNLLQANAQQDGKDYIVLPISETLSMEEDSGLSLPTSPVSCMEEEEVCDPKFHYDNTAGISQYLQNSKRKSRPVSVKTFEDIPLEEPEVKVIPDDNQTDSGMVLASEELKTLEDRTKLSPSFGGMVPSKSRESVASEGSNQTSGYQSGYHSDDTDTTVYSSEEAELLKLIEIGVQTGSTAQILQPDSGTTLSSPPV
Method: Log phase HUVEC cells were collected, counted and resuspended in FACS buffer (5% BSA+PBS). 2×10∧5 cells were added to each tube and then washed once with PBS (1500 rpm, 5 mins, RT). Then […] serial diluted VEGFR2 antibodies purified from hybridoma supernatant in FACS buffer were added into corresponding tubes and were incubated at 4° C. for 1 hr. The cells were then washed twice with 1 ml PBS, followed by adding 100 μl/tube of 2nd antibody (1:400 anti-mIgG (H+L)-PE, Cell signaling #8887) in FACS buffer. The cells were incubated at 4° C. for 0.5 hr and then washed twice with PBS, followed by resuspending cells in 600 μl PBS for each sample. The cells were then transferred into FACS tube and the bindings of the antibodies to the cells were detected using flow cytometry (BD Accuri C6) (see FIG. 3).
The percentage of positive binding cells was calculated and fit by Graphpad Prism Software.

[3] = molecular target: T1, Recombinant Human VEGFR2/KDR Protein, …; experiment: competition ELISA on coated hVEGFR2-his: hybridoma antibody titrated against 100 ng/ml chimeric 002C, anti-human IgG Fc-HRP
[4] = molecular target: T1, Recombinant Human VEGFR2/KDR Protein, …; experiment: SPR (Biacore), antibody captured by anti-Fc, antigen 2.5-80 nM
Method: A CM5 sensor chip was activated in each flow cell by 7-min injection (10 μl/min) of freshly prepared 1:1 50 mM N-hydroxysuccinimide (NHS): 200 mM 1-ethyl-3-(3-dimethylaminopropyl)-carbodiimide (EDC). Then anti-human Fc antibody (GE Healthcare) in a concentration of 10 μg/ml in 10 mM sodium acetate buffer PH 5.0 was injected onto the activated chip at 10 μl/min (HBS-EP running buffer: 10 mM HEPES, 150 mM NaCl, 3.4 mM EDTA, 0.005% surfactant P20, pH 7.4). The remaining active coupling sites were blocked by 7 min injection of 1M ethanolamine at 10 μl/min. The immobilization level of each flow cell is ˜9000RU. Antibodies were captured in FC2 by anti-human Fc IgG or anti-mouse Fc (GE Healthcare) to 200˜300RU. FC1 was used as the reference cell. Antigen was injected at varying concentrations (2.5 nM, 5 nM, 10 nM, 20 nM, 40 nM and 80 nM) after capture of antibody. The association time for antibody binding antigen is 180s. Surface Regeneration condition is 120s at 10 μl/min in Gly pH1.5. The signals with captured antibody subtracted from those without captured antibody were calculated with Biacore X100 evaluation software ver. 2.0 (Biacore).

[5] = molecular target: T1, Recombinant Human VEGFR2/KDR Protein, …; experiment: competition ELISA: hVEGFR2-his coated (1 ug/ml), antibody titrated, then 0.3 ug/ml hVEGF-A added and bound VEGF-A detected; blocked ligand hVEGF-A
Method: High-binding clear polystyrene 96 well plates were coated with 100 μl/well of 1 μg/ml hVEGFR2-his overnight at 4° C. After washing and blocking, serial diluted antibodies (from 10 μg/ml to 0.0006 μg/ml) were added and incubate for 1 hour at RT. 0.3 μg/ml hVEGF-A (Acrobiosystem, Cat #VE5-H4210) were added and incubated for 2 hour at RT. Then 100 μl/well of 0.25 μg/ml Biotinylated Rabbit Anti-human VEGF-A (Peprotech, Cat #400-P10Bt) was then added for detecting bound VEGF-A. Then 100 μl/well of a solution of HRP conjugated Neutravidin antibody (Pierce, Cat #31001) and TMB were added sequentially. Finally, reaction was terminated using 0.64M H₂SO₄ and plates were read at 450 nm.

[6] = molecular target: T1, Recombinant Human VEGFR2/KDR Protein, …; experiment: ELISA, hVEGFR2-his coated, anti-human Fc-HRP; antibody made in 293T cells
Method: Same protocol of Example 4 except using HRP conjugated goat anti-human Fc antibody as secondary antibody. Binding to hVEGFR2-his and rhesus VEGFR2-his (Acrobiosystems, Cat #VE2-C52H3) were also analyzed head-to-head.
Same protocol of Example 9.

T1 sequence (P35968 other isoform, or with tags, fused parts or gaps): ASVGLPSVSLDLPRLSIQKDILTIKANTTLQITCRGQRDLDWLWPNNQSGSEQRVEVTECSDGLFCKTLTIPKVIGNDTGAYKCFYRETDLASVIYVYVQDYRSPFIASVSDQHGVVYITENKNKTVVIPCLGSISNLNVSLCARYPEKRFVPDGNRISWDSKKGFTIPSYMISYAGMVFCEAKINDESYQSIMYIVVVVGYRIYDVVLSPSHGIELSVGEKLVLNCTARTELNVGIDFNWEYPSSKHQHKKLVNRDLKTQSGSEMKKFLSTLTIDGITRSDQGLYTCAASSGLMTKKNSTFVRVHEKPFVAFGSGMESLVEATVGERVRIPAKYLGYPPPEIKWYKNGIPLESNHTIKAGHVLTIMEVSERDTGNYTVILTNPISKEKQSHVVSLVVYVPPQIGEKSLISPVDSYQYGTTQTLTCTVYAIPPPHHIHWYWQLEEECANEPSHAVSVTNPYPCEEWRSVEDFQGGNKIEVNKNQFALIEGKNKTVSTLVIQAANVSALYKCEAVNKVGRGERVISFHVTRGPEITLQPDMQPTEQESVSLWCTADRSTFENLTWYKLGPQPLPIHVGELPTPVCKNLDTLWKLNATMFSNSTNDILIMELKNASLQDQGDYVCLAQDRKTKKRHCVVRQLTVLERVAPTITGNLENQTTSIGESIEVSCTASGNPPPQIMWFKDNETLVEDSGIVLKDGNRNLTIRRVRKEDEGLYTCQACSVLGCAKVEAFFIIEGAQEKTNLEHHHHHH

Row | Binder | EC50 [1] [µg/mL] | EC50 [2] [µg/mL] | IC50 (read off the curve) [3] [µg/mL] | Kd [4] [nM] | koff [4] [s⁻¹] | kon [4] [M⁻¹ s⁻¹] | IC50 [5] [µg/mL] | EC50 [6] [µg/mL]
1 | 002 (mouse hybridoma antibody) (antibody, V domains shown, Mouse antibody purified from hybridoma; also called mAb002; 11B8) VH: QVQLQQSGPELVKPGASVKISCKASGYAFSSSWMNWVKQRPGEGLEWIGRIFPGDGDTYYNGKFQVKATLTADKSSSTAYMQLSSLTSEDSAVYFCAIFLDTSGRYVDYWGQGTTLTISS VL: DIVMTQSHKFMSTSVGDRVSITCKASQDVNTAVAWYQQKPGQSPKLLIYSASYRYIGVPDRFTGSGSGTDFTFTISSVQSEDLTVYYCQQHYRAPLTFGSGTKLELK | 0.0168 | 0.0462 | ~0.2 | 5.98 | 0.000336 | 56200 | 0.0434 | 
2 | 042 (mouse hybridoma antibody) (antibody, V domains shown, Mouse antibody purified from hybridoma; also called mAb042; 8G11G1B2C6) VH: EVQLVESGGDLVKPGGSLKLSCTASGFSFSIYGMSWVRQTPDKRLEWVASISVGGSYTYYADSVEGRFTISRENAKNTLYLQMNSLKSEDTALYYCARELDGNYDYWGQGTSLTVSS VL: DIVITQNELSNPVTFGESVSISCRSSKSLLYKDGKTYLNWFLQRPGQSPQLLIYLMSTRASGVSDRFSGSGSGTDFTLEISRVKAEDVGVYYCQQLVEYPFTFGSGTKLEIK | 0.0224 | 0.052 | ~0.1 | 0.573 | 4.88e-05 | 85100 | 0.0629 | 
3 | 54-H1L1 (humanized Mab54) (antibody, human IgG1, V domains shown, also called humanized 54 variant H1L1) VH: EVQLVESGGGLVKPGGSLKLSCAASGFTFSMYGMSWVRQTPGKRLEWVASISIGGSYTYYADSVKGRFTISRDNAKNTLYLQMNSLKAEDTAVYYCARELDGNYDYWGQGTTLTVSS VL: DIVITQDELSLPVTFGESVSISCRSSKSLLYKDGKTYLNWFLQRPGQSPQLLIYLMSTRASGVSDRFSGSGSGTDFTLKISRVEAEDVGIYYCQQLVEYPFTFGSGTKLEIK |  |  |  | 1.14 | 5.15e-05 | 45100 |  | 0.0221
4 | 54-H1L2 (humanized Mab54) (antibody, human IgG1, V domains shown, also called humanized 54 variant H1L2) VH: EVQLVESGGGLVKPGGSLKLSCAASGFTFSMYGMSWVRQTPGKRLEWVASISIGGSYTYYADSVKGRFTISRDNAKNTLYLQMNSLKAEDTAVYYCARELDGNYDYWGQGTTLTVSS VL: DIVITQTPLSLPVTPGESVSISCRSSKSLLYKDGKTYLNWFLQRPGQSPQLLIYLMSTRASGVPDRFSGSGSGTDFTLKISRVEAEDVGVYYCQQLVEYPFTFGSGTKLEIK |  |  |  | 3.68 | 0.000139 | 37700 |  | 0.0706
5 | 48-H3L2 (antibody, V domains shown, also called humanized Mab48 variant H3L2) VH: EVQLVESGGGLVKPGGSLRLSCAASGFTFSMYGMSWVRQAPGKRLEWVASISIGGSYTYYADSVKGRFTISRDNAKNTLYLQMNSLRAEDTAVYYCAREMDGNYDYWGHGTTLTVSS VL: DIVITQTPLSLPVTPGESVSISCRSSKSLLYKDGKTYLNWFLQRPGQSPQLLIYLMSTRASGVPDRFSGSGSGTDFTLKISRVEAEDVGVYYCQQLVEYPFTFGSGTKLEIK |  |  |  |  |  |  |  | 0.0171
6 | 54-H2L2 (humanized Mab54) (antibody, human IgG1, V domains shown, also called humanized 54 variant H2L2) VH: EVQLVESGGGLVKPGGSLRLSCAASGFTFSMYGMSWVRQAPGKRLEWVASISIGGSYTYYADSVKGRFTISRDNAKNTLYLQMNSLRAEDTAVYYCARELDGNYDYWGQGTTLTVSS VL: DIVITQTPLSLPVTPGESVSISCRSSKSLLYKDGKTYLNWFLQRPGQSPQLLIYLMSTRASGVPDRFSGSGSGTDFTLKISRVEAEDVGVYYCQQLVEYPFTFGSGTKLEIK |  |  |  | 4.3 | 0.000128 | 29700 |  | 0.0442
7 | 018 (mouse hybridoma antibody) (antibody, V domains shown, Mouse antibody purified from hybridoma; also called mAb018; 16D9G2E8) VH: EVKLVESGGGLVQPGGSLSLSCAVSGFTFTDYYMSWVRQPPGKALEWLGFIRNKANGYTTEYSASVKGRFTISRDNSQSILYLQMNALRAEDSATYYCARFDYYGSTYCFDYWGQGTTLTVSS VL: DIVLTQSPASLAVSLGQRATISCRASQSVSTSSSSFMHWYQQKPGQPPKLLIKYASNLESGVPARFSGSGSGTDFTLNIHPVEEEDTATYYCQHTWEIPLTFGAGTKLELK | 0.0129 |  |  | 5.11 | 0.000452 | 88400 |  | 
8 | 003 (mouse hybridoma antibody) (antibody, V domains shown, Mouse antibody purified from hybridoma; also called mAb003; 21B4) VH: QVQLQQPGAELVKPGASVKMSCKASGYTFNTYWIMWVKQRPGQGLEWIGDIYPGTGSTNYNEKFKSKVTLTADTSSTTAYMQVSSLTSEDSAVYYCGRDSNPDYWGQGTTLTVSS VL: not shown | 0.00769 |  |  | 0.235 | 2.95e-05 | 126000 |  | 
9 | 006 (mouse hybridoma antibody) (antibody, V domains shown, Mouse antibody purified from hybridoma; also called mAb006; 27E8A9D5) VH: QAQLQQPGAELVKPGTSVKMSCKASGYTFNSYWIMWVKQSPGQGLEWIGDIYPGSGSTNYNEKFKSKVTLTVDTSSSTAYMQVSSLTSEDSAVYYCARDSNPDYWGQGTTLTVSS VL: not shown | 0.0135 |  |  | 1.47 | 0.000186 | 127000 |  | 

— patent publication US20240209099A1 (SUZHOU TRANSCENTA THERAPEUTICS, published 2024)
